± gives the standard deviation of the averaged measurements.
System: ATP
Assay: switch fluorescence ratio, 500 uM ATP over buffer (Cy3 cluster intensity, sum of 5 cycles each) (fold (ratio)); higher = stronger signal-on switching upon ATP binding; sequences stand for … in TCGTCGGCAGCGTCAGATGTGTATAAGAGACAGTTTTTTTTTTTTTTTTTTTTTTTTT…TC
Details: aptamer strand: ATP DNA aptamer (quencher-CACCTGGGGGAGTATTGCGGAGGAAGG + anchor), 100 nM annealed; ATP concentration: 500 uM
Summary of the method: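 Cy3-labelled switching-strand clusters on a modified Illumina MiSeq flow-cell were annealed to 100 nM quencher-labelled ATP aptamer, imaged in selection buffer, then imaged after 15 min with 500 uM ATP at 22 °C. Five buffer/ATP cycles ran, with NaOH stripping and re-annealing between them. The fluorescence ratio is summed target-cycle over summed buffer-cycle Cy3 intensity per cluster, averaged per switch-domain sequence. Clusters outside 100-1000 RFU were excluded.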
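Note: ATP exposure 15 min at 22 °C before imaging.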

Sequence	switch fluorescence ratio
CAGCCTTGGT	1.04 ± 0.11
CAGCGAGGAA	1.014 ± 0.0091
CAGCGCCGTT	1.006 ± 0.004
CAGCGCGGGA	0.999 ± 0.014
CAGCGGAGGT	1.025 ± 0.0052
CAGCGGTGGG	1.02 ± 0.029
CAGCGTATCA	1.01 ± 0.0018
CAGCTAGTGG	1.011 ± 0.0011
CAGCTCTGGG	1 ± 0.022
CAGCTGTCGG	1.1 ± 0.12
CAGCTTGATA	0.979 ± 0.018
CAGGAACCGA	1.14 ± 0.017
CAGGAACTGT	0.985 ± 0.018
CAGGAACTTG	0.956 ± 0.023
CAGGAAGGAT	0.994 ± 0.016
CAGGAATATA	1.014 ± 0.0049
CAGGACCTCG	1.03 ± 0.024
CAGGAGAAGG	1.05 ± 0.022
CAGGAGACGA	1.03 ± 0.025
CAGGAGCTGT	1.2 ± 0.034
CAGGATACGC	1.21 ± 0.34
CAGGATCATG	1.11 ± 0.15

Sequence	switch fluorescence ratio
CAGGATTTGG	0.985 ± 0.013
CAGGATTTTT	0.993 ± 0.042
CAGGCCTAGG	0.946 ± 0.024
CAGGCGACTG	0.9706 ± 0.0041
CAGGCGAGGG	0.9905 ± 0.0078
CAGGCGTGCA	0.998 ± 0.018
CAGGCTGGAC	1.06 ± 0.046
CAGGCTGTCG	1.02 ± 0.036
CAGGCTTTTT	1 ± 0.029
CAGGGAGCTT	1.01 ± 0.03
CAGGGAGGGA	0.992 ± 0.02
CAGGGATGTG	1.03 ± 0.013
CAGGGATTAA	0.9842 ± 0.0036
CAGGGATTTT	0.98 ± 0.022
CAGGGCGATA	1.1 ± 0.033
CAGGGCGGA	0.993 ± 0.015
CAGGGCGGGC	0.84 ± 0.073
CAGGGCTATT	1.01 ± 0.037
CAGGGGAGCG	0.993 ± 0.037
CAGGGGCCGG	0.978 ± 0.018
CAGGGGCGGA	1.04 ± 0.03
CAGGGGCGGG	0.966 ± 0.11

Sequence	switch fluorescence ratio
CAGGGGGAAT	1.1 ± 0.11
CAGGGGGGG	1 ± 0.011
CAGGGGGGGG	1.01 ± 0.031
CAGGGGGGGT	1.03 ± 0.061
CAGGGGTGCG	0.991 ± 0.013
CAGGGTACGC	1.04 ± 0.016
CAGGGTTAAT	1.012 ± 0.0094
CAGGGTTCGT	0.9894 ± 0.0081
CAGGGTTGGG	1 ± 0.019
CAGGGTTTGG	1.01 ± 0.023
CAGGGTTTTA	1.006 ± 0.0055
CAGGTCGACG	1.05 ± 0.032
CAGGTCGCTT	1.01 ± 0.0019
CAGGTCTTGA	0.9888 ± 0.0014
CAGGTGGGGT	1.16 ± 0.08
CAGGTTATAT	1.03 ± 0.028
CAGGTTTCGG	0.987 ± 0.022
CAGGTTTCGT	0.989 ± 0.021
CAGGTTTGGC	0.9775 ± 0.002
CAGGTTTTGG	0.964 ± 0.034
CAGTAAATGT	0.984 ± 0.054
CAGTAAGAAT	0.9809 ± 0.0019

Sequence	switch fluorescence ratio
CAGTAAGAGC	0.935 ± 0.0095
CAGTAATTAT	0.997 ± 0.02
CAGTAGGGTA	1 ± 0.045
CAGTATGCAC	1.01 ± 0.047
CAGTATGGGA	0.999 ± 0.02
CAGTCAGAGT	0.985 ± 0.023
CAGTCGTCGA	1.001 ± 0.0033
CAGTCTACGA	1.03 ± 0.015
CAGTCTTGC	1.03 ± 0.021
CAGTGAAAAA	1.06 ± 0.089
CAGTGAGGGA	0.9804 ± 0.004
CAGTGAGGGG	0.984 ± 0.029
CAGTGATCTT	0.97521 ± 0.00076
CAGTGCGCGC	1.01 ± 0.026
CAGTGGAGGA	1 ± 0.024
CAGTGGGGGA	0.993 ± 0.022
CAGTGGGGGT	1 ± 0.03
CAGTGGGTCT	0.992 ± 0.017
CAGTGTCCGC	1.07 ± 0.018

Source: the supplement of paper PMC10126150
